Test results: patent publication US20240092899A1 (CHIA TAI TIANQING PHARMACEUTICAL GROUP, published 2024)
Blank lines part the entries; values can stand above or below the binder they belong to.

What was measured:
[1] = biological target: heavy chain HZ14A9VH-CH1-IgG1; experiment: co-expression in ExpiCHO-S, protein A purification, non-reducing SDS-PAGE
Experimental: (§1) After transfection, the cells were placed in ExpiCHO™ medium (manufacturer: Thermo, Cat No. A2910001), and expressed and cultured at 32° C. with 5% CO₂ at 130 rpm. On day 10, the cell supernatant was collected, and the target protein was purified by protein A affinity chromatography using AKTA Pure 25 L system from GE and MabSelect SuRe LX packing. After elution, the concentration of the eluted protein was measured using NanoDrop Lite (Thermo Fisher Scientific). The purity of the eluted protein was measured by SEC-HPLC, and the protein purity of the sample used for the test was not lower than 80%. A total amount of […] of protein was taken from each sample and subjected to non-reducing SDS-PAGE electrophoresis. The protein was stained with Coomassie brilliant blue, and the electrophoresis results were observed.
(§2) After the co-expression and purification of HZ5G11VH-Cα-IgG1 and HZ14A9VL-IgK as well as HZ14A9VH-Cα-IgG1 and HZ5G11VL-IgK, various products were generated. […] The results above indicate that there is some interaction between the CL domain and MHCICα, thereby promoting the production of light and heavy-mispaired products.

[2] = biological target: T1, human CD47 (human, UniProt Q08722 19-139); experiment: SPR (Biacore 8K), antibody captured on chip, antigen injected
T1 construct: Bought antigen; also called ACROBiosystems Cat. No. CD7-H5227
T1 sequence (Q08722 19-139 limits assumed): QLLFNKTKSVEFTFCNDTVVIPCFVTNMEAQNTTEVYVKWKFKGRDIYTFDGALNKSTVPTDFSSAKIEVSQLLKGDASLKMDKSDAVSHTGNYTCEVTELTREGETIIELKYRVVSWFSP
From the text: (§3) The affinity properties of the HZ5G11 monoclonal antibody, the HZ14A9 monoclonal antibody, MHL147-3322-IgG1-wt and MHL147-3322-IgG1-F118A bispecific antibodies were characterized by Biacore. The HZ5G11 monoclonal antibody, the HZ14A9 monoclonal antibody, MHL147-3322-IgG1-wt and MHL147-3322-IgG1-F118A bispecific antibodies were respectively immobilized onto a sensing chip by a capture method, and a human PDL1 (manufacturer: ACROBiosystems, Cat. No. PD1-H52H3) or human CD47 (manufacturer: ACROBiosystems, Cat. No. CD7-H5227) protein antigen solution with a certain concentration gradient was injected into the sample. Association/dissociation curves were acquired in real time by Biacore 8K Control Software 3.0, and data analysis was performed by Biacore Insight Evaluation Software 3.0. An association rate constant Ka, a dissociation rate constant Kd, and an equilibrium constant KD were obtained.

[3] = biological target: heavy chain HZ5G11VH-CH1-IgG1; experiment: co-expression in ExpiCHO-S, protein A purification, non-reducing SDS-PAGE, Coomassie stain
Experimental: as §1, §2

[4] = biological target: heavy chain HZ14A9VH-Cα-IgG1; experiment: co-expression in ExpiCHO-S, protein A purification, non-reducing SDS-PAGE
Experimental: as §1, §2

[5] = biological target: heavy chain HZ14A9VH-Cα-IgG1; experiment: co-expression in ExpiCHO-S, protein A purification, non-reducing SDS-PAGE, Coomassie stain
[6] = biological target: heavy chain HZ14A9VH-CH1-IgG1; experiment: as above
Experimental: as §1, §2

[7] = biological target: heavy chain HZ5G11VH-CH1-IgG1; experiment: co-expression in ExpiCHO-S, protein A purification, non-reducing SDS-PAGE
Experimental: as §1, §2

[8] = biological target: T2, heavy chain HZ5G11VH-Cα-IgG1; experiment: as above
T2 construct: HZ5G11 heavy chain whose CH1 is replaced by MHCICα
Experimental: as §1, §2

[9] = biological target: T3, human PDL1 (human, UniProt Q9NZQ7 19-238); experiment: SPR (Biacore 8K), antibody captured on chip, antigen injected
T3 construct: Bought antigen; also called ACROBiosystems Cat. No. PD1-H52H3
T3 sequence (Q9NZQ7 19-238 limits assumed): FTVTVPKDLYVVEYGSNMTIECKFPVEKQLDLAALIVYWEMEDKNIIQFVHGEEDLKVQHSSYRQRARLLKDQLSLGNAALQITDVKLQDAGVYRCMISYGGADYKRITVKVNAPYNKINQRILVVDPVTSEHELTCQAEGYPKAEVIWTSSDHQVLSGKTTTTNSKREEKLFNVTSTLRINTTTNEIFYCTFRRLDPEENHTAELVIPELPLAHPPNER
From the text: as §3

B2: HZ14A9 monoclonal antibody (antibody, V domains shown)
VH: QVQLVQSGAEVKKPGASVKVSCKVSGFNIEDDYIEWVRQAPGQGLEWMGRIDPANDKTKYAQKFQGRVTMTGDTSTNTVYMELSSLRSEDTAVYYCARPGLRRYYSMDYWGQGTLVTVSS
VL: DIQMTQSPSSLSASVGDRVTITCKASENVVSYVSWYQQKPGKAPKLLIYGASNRYTGVPSRFIGSGSSTDFTLTISSLQPEDFATYYCGQSYSYPLTFGQGTKLEIKR
notes: Humanized IgG1 kappa antibody from a mouse hybridoma; also called monoclonal IgG1K antibody HZ14A9 targeting human CD47
Kd [2]: 5.85 nM | koff [2]: 0.0143 s⁻¹ | kon [2]: 2.45e+06 M⁻¹ s⁻¹

B3: light chain HZ5G11VL-IgK (other)
light: DIQMTQSPSSLSASVGDRVTITCKASQSVSNDVAWYQQKPGKAPKLLIYYAANRYTGVPDRFSGSGYGTDFTFTISSLQPEDIATYFCQQDYTSPYTFGQGTKLEIKRTVAAPSVFIFPPSDEQLKSGTASVVCLLNNFYPREAKVQWKVDNALQSGNSQESVTEQDSKDSTYSLSSTLTLSKADYEKHKVYACEVTHQGLSSPVTKSFNRGEC
binding result [3]: binds | binding result [4]: binds | binding result [1]: binds

B8: MHL147-3322-IgG1-wt (bispecific antibody)
heavy 1: not shown
light 1: DIQMTQSPSSLSASVGDRVTITCKASQSVSNDVAWYQQKPGKAPKLLIYYAANRYTGVPDRFSGSGYGTDFTFTISSLQPEDIATYFCQQDYTSPYTFGQGTKLEIKIQRTPKIQVYSCHPAENGKSNFLNCYVSGFHPSDIEVDLLKNGERIEKVEHSDLSFSKDWSFYLLYYTRFTPTEKDEYACRVNHVTLSQPKIVKWDRGP
heavy 2: not shown
light 2: DIQMTQSPSSLSASVGDRVTITCKASENVVSYVSWYQQKPGKAPKLLIYGASNRYTGVPSRFIGSGSSTDFTLTISSLQPEDFATYYCGQSYSYPLTFGQGTKLEIKRTVAAPSVFIFPPSDEQLKSGTASVVCLLNNFYPREAKVQWKVDNALQSGNSQESVTEQDSKDSTYSLSSTLTLSKADYEKHKVYACEVTHQGLSSPVTKSFNRGEC
notes: IgG1 bispecific with LALA (L234A+L235A) and KIH mutations; The PD-L1 arm is modified with MHC-I elements; the CD47 arm is a Fab with wild-type kappa CL; also called anti-PDL1*CD47 bispecific antibody
Kd [9]: 0.304 nM | koff [9]: 0.000562 s⁻¹ | kon [9]: 1.85e+06 M⁻¹ s⁻¹ | Kd [2]: 3.31 nM | koff [2]: 0.0124 s⁻¹ | kon [2]: 3.75e+06 M⁻¹ s⁻¹

B9: MHL147-3322-IgG1-F118A (bispecific antibody)
heavy 1: not shown
light 1: DIQMTQSPSSLSASVGDRVTITCKASQSVSNDVAWYQQKPGKAPKLLIYYAANRYTGVPDRFSGSGYGTDFTFTISSLQPEDIATYFCQQDYTSPYTFGQGTKLEIKIQRTPKIQVYSCHPAENGKSNFLNCYVSGFHPSDIEVDLLKNGERIEKVEHSDLSFSKDWSFYLLYYTRFTPTEKDEYACRVNHVTLSQPKIVKWDRGP
heavy 2: not shown
light 2: DIQMTQSPSSLSASVGDRVTITCKASENVVSYVSWYQQKPGKAPKLLIYGASNRYTGVPSRFIGSGSSTDFTLTISSLQPEDFATYYCGQSYSYPLTFGQGTKLEIKRTVAAPSVFIAPPSDEQLKSGTASVVCLLNNFYPREAKVQWKVDNALQSGNSQESVTEQDSKDSTYSLSSTLTLSKADYEKHKVYACEVTHQGLSSPVTKSFNRGEC
notes: IgG1 bispecific with LALA (L234A+L235A) and KIH mutations; The PD-L1 arm is modified with MHC-I elements; the CD47 arm is a Fab whose kappa CL carries F118A (EU numbering); also called MHL147-3322-F118A; anti-PDL1*CD47 bispecific antibody
Kd [9]: 0.384 nM | koff [9]: 0.000606 s⁻¹ | kon [9]: 1.58e+06 M⁻¹ s⁻¹ | Kd [2]: 5.26 nM | koff [2]: 0.0249 s⁻¹ | kon [2]: 4.74e+06 M⁻¹ s⁻¹

B10: HZ5G11 monoclonal antibody (antibody, V domains shown)
VH: QITLKESGPTLVKPTQTLTLTCTVSGFSLSTYGVHWIRQPPGKALEWLGVIWRGVTTDYNAAFMSRLTITKDNSKNQVVLTMNNMDPVDTATYYCARLGFYAMDYWGQGTLVTVSS
VL: DIQMTQSPSSLSASVGDRVTITCKASQSVSNDVAWYQQKPGKAPKLLIYYAANRYTGVPDRFSGSGYGTDFTFTISSLQPEDIATYFCQQDYTSPYTFGQGTKLEIKR
notes: Humanized IgG1 kappa antibody from a mouse hybridoma; also called monoclonal IgG1K antibody HZ5G11 targeting human PD-L1
Kd [9]: 0.282 nM | koff [9]: 0.000427 s⁻¹ | kon [9]: 1.51e+06 M⁻¹ s⁻¹

Now from value to binder:

binding result [1]: no binding
B1: light chain HZ5G11VL-Cβ (other)
light: DIQMTQSPSSLSASVGDRVTITCKASQSVSNDVAWYQQKPGKAPKLLIYYAANRYTGVPDRFSGSGYGTDFTFTISSLQPEDIATYFCQQDYTSPYTFGQGTKLEIKIQRTPKIQVYSCHPAENGKSNFLNCYVSGFHPSDIEVDLLKNGERIEKVEHSDLSFSKDWSFYLLYYTRFTPTEKDEYACRVNHVTLSQPKIVKWDRGP
notes: HZ5G11 light chain whose CL is replaced by MHCICβ

binding result [5]: binds
B4: HZ5G11VL-IgK-F116A (other)
light chain: DIQMTQSPSSLSASVGDRVTITCKASQSVSNDVAWYQQKPGKAPKLLIYYAANRYTGVPDRFSGSGYGTDFTFTISSLQPEDIATYFCQQDYTSPYTFGQGTKLEIKRTVAAPSVAIFPPSDEQLKSGTASVVCLLNNFYPREAKVQWKVDNALQSGNSQESVTEQDSKDSTYSLSSTLTLSKADYEKHKVYACEVTHQGLSSPVTKSFNRGEC
notes: Variant of m12; also called light chain HZ5G11VL-IgK with F116A (EU numbering) in the CL domain

binding result [5]: binds
B5: HZ5G11VL-IgK-F118I (other)
light chain: DIQMTQSPSSLSASVGDRVTITCKASQSVSNDVAWYQQKPGKAPKLLIYYAANRYTGVPDRFSGSGYGTDFTFTISSLQPEDIATYFCQQDYTSPYTFGQGTKLEIKRTVAAPSVFIIPPSDEQLKSGTASVVCLLNNFYPREAKVQWKVDNALQSGNSQESVTEQDSKDSTYSLSSTLTLSKADYEKHKVYACEVTHQGLSSPVTKSFNRGEC
notes: Variant of m12; also called light chain HZ5G11VL-IgK with F118I (EU numbering) in the CL domain

binding result [5]: binds
B6: HZ5G11VL-IgK-S114A (other)
light chain: DIQMTQSPSSLSASVGDRVTITCKASQSVSNDVAWYQQKPGKAPKLLIYYAANRYTGVPDRFSGSGYGTDFTFTISSLQPEDIATYFCQQDYTSPYTFGQGTKLEIKRTVAAPAVFIFPPSDEQLKSGTASVVCLLNNFYPREAKVQWKVDNALQSGNSQESVTEQDSKDSTYSLSSTLTLSKADYEKHKVYACEVTHQGLSSPVTKSFNRGEC
notes: Variant of m12; also called light chain HZ5G11VL-IgK with S114A (EU numbering) in the CL domain

binding result [6]: binds | binding result [7]: binds | binding result [8]: binds
B7: light chain HZ14A9VL-IgK (other)
light: DIQMTQSPSSLSASVGDRVTITCKASENVVSYVSWYQQKPGKAPKLLIYGASNRYTGVPSRFIGSGSSTDFTLTISSLQPEDFATYYCGQSYSYPLTFGQGTKLEIKRTVAAPSVFIFPPSDEQLKSGTASVVCLLNNFYPREAKVQWKVDNALQSGNSQESVTEQDSKDSTYSLSSTLTLSKADYEKHKVYACEVTHQGLSSPVTKSFNRGEC

binding result [7]: no binding
B11: light chain HZ14A9VL-Cβ (other)
light: DIQMTQSPSSLSASVGDRVTITCKASENVVSYVSWYQQKPGKAPKLLIYGASNRYTGVPSRFIGSGSSTDFTLTISSLQPEDFATYYCGQSYSYPLTFGQGTKLEIKIQRTPKIQVYSCHPAENGKSNFLNCYVSGFHPSDIEVDLLKNGERIEKVEHSDLSFSKDWSFYLLYYTRFTPTEKDEYACRVNHVTLSQPKIVKWDRGP
